Earlier results in patent publication US6759384B1, “Factor Xa inhibitors” (Aventis Pharmaceuticals Inc., priority 1994, dated 2004).

Biological target: factor Xa
Conditions: background section

B1: ATS: antistasin, protein inhibitor of factor Xa isolated from the leech Haementerin officinalis, 119 amino acids (protein, UniProt P15358 18-136, looked up)
Antistasin: QGPFGPGCEEAGCPEGSACNIITDRCTCSGVRCRMHCPHGFQRSRYGCEFCKCRLEPMKATCDISECPEGMMCSRLTNKCDCKIDINCRKTCPNGLKRDKLGCEYCECRPKRKLIPRLS
With B1 as the molecule, how does the Ki read?
Its Ki is 0.05 nM.
